Data on two substances can be found in article PMC10214761.

What is called Kd is the free concentration of one partner at which half of the binding sites on the other are occupied at equilibrium, for simple one-to-one binding. Low readings indicate higher affinity, high ones lower affinity.

This test has as its target IgG1k from human myeloma plasma (IgG1 MC) (human). The experiment in a line: SPR.

The substance “human Fcγ receptor IIa (hFcγRIIa) (from UniProt P12318 34-217)” came in with a dissociation constant Kd of 309 nM.
With “human Fcγ receptor IIb/c (hFcγRIIb/c) (from UniProt P31994 43-217)” the figure was 3360 nM.
